Reference: article PMC4930772, “Crystal structure of a PP2A B56-BubR1 complex and its implications for PP2A substrate recruitment and localization” (Protein & Cell, 2016)
Substitutions are numbered along the chain they refer to. Names may count otherwise.

Molecular target: human PP2A B56γ1(30–380) (human, UniProt Q13362-2 30-380)
Assay: ITC; B56γ1 in the cell at 0.03 mmol/L, BubR1 protein or peptide at 0.7 mmol/L injected (20 x 1.5 µL); room temperature; 20 mmol/L Tris-HCl pH 8.0, 200 mmol/L NaCl; one-site model
Settings: both partners purified

B1: human BubR1(647–720)-3D (S670D/S676D/T680D) (domain or fragment)
chain: KTSEDQQTACGTIYSQTLSIKKLDPIIEDDREADHSSGFSGSSASVASTSSIKCLQIPEKLELTNETSENPTQS
notes: also called BubR1-3D; source: E. coli BL21 (DE3), purified (Glutathione Sepharose 4B, TEV cleavage, Hitrap Q HP)
  Kd: 2.27 ± 0.37 µM
  dH: -28.4 ± 0.83 kcal/mol
  stoichiometry N: 1.02 ± 0.02

B2: human BubR1(647–720; E678A/T680A/H681A) (domain or fragment)
chain: B1 chain with D24S, D30S, E32A, D34A, H35A
notes: also called BubR1-AAAA; source: E. coli BL21 (DE3), purified the same way as wild type
  Kd: 10.6 ± 1.72 µM
  dH: -9.74 ± 0.64 kcal/mol
  stoichiometry N: 1.02 ± 0.05
